For test [1], the target named is T1, KlGal1p with N-terminal His6-tag (NHKlGal1p) (Kluyveromyces lactis) (UniProt P09608).
T1 sequence: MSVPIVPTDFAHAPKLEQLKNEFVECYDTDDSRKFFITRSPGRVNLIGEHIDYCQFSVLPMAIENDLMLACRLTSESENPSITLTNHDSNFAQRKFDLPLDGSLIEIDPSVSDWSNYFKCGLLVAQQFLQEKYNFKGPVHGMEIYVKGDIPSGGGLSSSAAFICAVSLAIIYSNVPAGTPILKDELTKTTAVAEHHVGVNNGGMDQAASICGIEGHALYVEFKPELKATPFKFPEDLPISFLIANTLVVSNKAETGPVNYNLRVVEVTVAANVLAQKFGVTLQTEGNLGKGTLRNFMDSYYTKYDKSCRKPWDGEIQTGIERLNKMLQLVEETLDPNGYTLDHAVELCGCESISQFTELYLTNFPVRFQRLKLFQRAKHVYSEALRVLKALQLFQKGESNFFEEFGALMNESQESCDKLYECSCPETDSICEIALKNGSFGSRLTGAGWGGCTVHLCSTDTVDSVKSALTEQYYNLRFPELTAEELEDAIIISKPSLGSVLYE
The test is described as follows: galactokinase inhibition titration; 10 nM NHGal1p with increasing concentrations of NHKlGal80p or NHKlGal80-KR56Ap; ADP production coupled to pyruvate kinase and lactate dehydrogenase (NADH consumption); apparent KD from the decline in KlGal1p activity.

The target of test [2] is T1, KlGal1p with N-terminal His6-tag (NHKlGal1p) (Kluyveromyces lactis).
Test [3] deals with T2, KlGal1p with N-terminal His6-tag (NHKlGal1p) (Kluyveromyces lactis, UniProt P09608 1-503).
T2 construct: KlGal1p, galactokinase (Gal1 protein) of Kluyveromyces lactis; also called NHGal1p; source: E. coli Rosetta (DE3)-pLys, from pETNHG1, purified as described in Anders et al, 2006b; not shown: His6, N-terminal, kept
T2 sequence (looked up): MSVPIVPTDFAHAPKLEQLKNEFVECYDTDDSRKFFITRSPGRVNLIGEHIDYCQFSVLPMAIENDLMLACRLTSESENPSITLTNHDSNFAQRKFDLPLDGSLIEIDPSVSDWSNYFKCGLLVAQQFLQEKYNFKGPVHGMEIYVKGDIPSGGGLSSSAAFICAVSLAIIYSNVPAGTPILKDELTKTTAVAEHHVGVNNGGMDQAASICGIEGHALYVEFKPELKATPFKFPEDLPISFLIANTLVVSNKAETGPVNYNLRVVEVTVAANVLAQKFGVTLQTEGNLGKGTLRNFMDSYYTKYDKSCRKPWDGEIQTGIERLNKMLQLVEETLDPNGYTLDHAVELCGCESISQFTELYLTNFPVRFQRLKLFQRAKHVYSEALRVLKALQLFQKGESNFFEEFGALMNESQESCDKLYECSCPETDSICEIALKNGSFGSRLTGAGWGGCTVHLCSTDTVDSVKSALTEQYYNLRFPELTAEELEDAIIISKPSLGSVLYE
The test is described as follows: galactokinase inhibition titration; 10 nM NHGal1p with increasing concentrations of NHKlGal80p or NHKlGal80-KR56Ap; ADP production coupled to pyruvate kinase and lactate dehydrogenase (NADH consumption); apparent KD from the decline in KlGal1p activity. Particulars: both partners purified.

Here are results for three molecules from paper PMC7556753, “A double role of the Gal80 N terminus in activation of transcription by Gal4p” (Life Science Alliance, 2020).

For “KlGal80-K5A/R6Ap with N-terminal His6-tag (NHKlGal80-K5A/R6Ap) (from UniProt Q06433 1-457) (natural protein)”, the Kd in test [1] was determined as 3100 nM. In test [2], this molecule displayed a relative galactokinase activity of KlGal1p with KlGal80-K5A/R6Ap (in % of the activity in the absence of KlGal80p or its peptide) of 93.6%.

B1: KlGal80p with N-terminal His6-tag (NHKlGal80p) (natural protein, Kluyveromyces lactis)
chain: MNNNKRSKLSTVPSSRPIRVGFVGLTSGKSWVAKTHFLAIQQLSSQFQIVALYNPTLKSSLQTIEQLQLKHATGFDSLESFAQYKDIDMIVVSVKVPEHYEVVKNILEHSSQNLNLRYLYVEWALAASVQQAEELYSISQQRANLQTIICLQGRKSPYIVRAKELISEGCIGDINSIEISGNGGWYGYERPMRSPEYLYDIESGVNLISNSFGHTIDVLQYITGSYFQKINAMISNNIPTQFLLDENGKRTKETISKTCPDHLLFQGILENGKVPVSCSFKGGTPVKKLTKNLVIDIHGTKGDLKIEGDAGFVEISNLVLYFYGIKNGNGSSNGTDNNGAAAIKDKEKVTKSPSPSTGTSEEEQTMEVFHLRNYNSVVGNILRIYESIADYHFLGKPESKSSRGPDDLFASTKFDKQGFRFEGFPTFKDAIILHRLIDAVFRSDKEEKTLDVSKIMI
notes: KlGal80p, Gal80 protein of Kluyveromyces lactis, wild type; 457 residues by the printed fragment aa 40-457; also called KlGal80p wild-type; source: E. coli Rosetta (DE3)-pLys, from pETNHG80, purified as described in Anders et al, 2006b; not shown: His6, N-terminal, kept
On to B1, for which the Kd in test [3] worked out at 81 nM.

For MNNNKRSKLSTVPSSRP [peptide KlN17G80 (N-terminal 17 residues of KlGal80p)], the relative galactokinase activity of KlGal1p with the KlN17G80 peptide alone (in % of the activity in the absence of KlGal80p or its peptide) in test [2] was 99.4%.
